{"source": "paper PMC10855774", "about": "“Role of Spexin in White Adipose Tissue Thermogenesis under Basal and Cold-Stimulated Conditions” (International Journal of Molecular Sciences, 2024)", "molecules": {"B1": {"name": "Spexin (peptide, UniProt Q9BT56 27-116, looked up)", "Spexin": "APQRLLERRNWTPQAMLYLKGAQGRRFISDQSRRKDLSDRPLPERRSPNPQLLTIPEAATILLASLQKSPEDEEKNFDQTRFLEDSLLNW", "modifications": "Spexin", "notes": "novel adipokine, a peptide of 14 amino acids of the galanin family; purchased from Tocris"}}, "assay_type_in_all_cases": "in vivo, mice", "key": {"[1]": {"assay": "Adipose tissue depot mass percentage", "conditions": "SPX 29 µg/kg/day ten days, cold (4 °C); SPX-C relative to CTR and CTR-C; C × S p < 0.05", "procedure": "(§1) Normal adult male C57BL/6 mice (four months of age) were kept in a temperature-controlled environment (20–22 °C and a fixed 12 h light/12 h dark cycle; lights on at 07:00 h) and fed ad libitum with Purina commercial rat/mouse chow (Ganave, Buenos Aires, Argentina, L0723/1). Mice were injected with SPX or PBS (29 µg/kg/day, Tocris, Bristol, UK) for ten days (the SPX and CTR groups, respectively). On the third day of the protocol, each group was subdivided into two other groups: one exposed to cold (4 °C, CTR-C and SPX-C, n = 12 mice for each group) and another one housed at RT (CTR and SPX, n = 15 mice for each group) (Figure 1). Food intake and body weight were measured every day. On the experimental day (day 10), the mice were euthanized under non-fasting conditions (08:00 to 09:00 h), and their trunk blood was collected; plasma samples were then frozen (–80 °C) until the metabolite measurement. Inguinal AT (IAT, subcutaneous depot), epididymal AT (EAT, visceral depot), and brown AT (BAT, subcutaneous depot) were aseptically dissected and weighed. These depots were kept at –80 °C for further procedures. Animals were euthanized according to protocols for animal use, in agreement with the NIH guidelines for the care and use of experimental animals. All experiments were approved by our Institutional Animal Care Committee (Approval code: 6NE-2023)."}, "[2]": {"assay": "Plasma glucose and triglyceride levels (commercial kits)", "conditions": "SPX 29 µg/kg/day ten days, RT or cold; non-fasting; n = 6–7", "procedure": "as §1, with “Animals were euthanized according to protocols for animal use, in agreement with the NIH guidelines for the care and use of experimental animals. All experiments were approved by our Institutional Animal Care Committee (Approval code: 6NE-2023).” left out\n(§2) Circulating glucose (Glu) and triglyceride (Tg) levels were measured using commercial kits (Wiener Lab., Rosario, Argentina). Plasma SPX was measured using a commercial ELISA kit (SPX: Phoenix pharmaceutical EK-023-81)."}, "[3]": {"assay": "Plasma SPX levels (ELISA) after SPX injection", "procedure": "as §2\nSupplementary figure 1. SPX levels (ng/ml, EIA Phoe nix pharmaceutical) after intraperitoneal injec tion with SPX (29 µg/kg). or Vehicle in mic e Different time points we r e evaluated after ip. Injections (10, 20, 60, 180, 360 minutes).\nSupplementary Figure 2. ucp1 (a), pgc1α (b) and cox8b (c) mRNA expression in B AT. In all case s, t wo -wa y A N O VA wa s performed for factor (S or C) and interaction (S x C) analysis and deta iled below the graph only when s ig n if ica nt .. When interaction is statist icall y s ig n if ica nt , group to gr oup comparison wa s performed by Bonferroni test. ++++ P<0.0001 vs. CTR and ***P<0.001 vs. CTR-C (n=4- 6 m ice per group). […]"}, "[4]": {"assay": "Liver Tg content", "conditions": "SPX 29 µg/kg/day ten days", "procedure": "Liver tissue (50 mg) was homogenized in a 5% solution of 500 µL Triton X-100 in PBS. The homogenate was incubated at 80–100 °C for 5 min and centrifuged at 10,000× g for 10 min. The Tg levels were measured in the supernatants using a commercial kit (Wiener Lab., Rosario, Argentina)."}, "[5]": {"test_system": "ucp1", "assay": "UCP1 protein expression in EAT and IAT (Western blot)", "procedure": "as §1, with “Inguinal AT (IAT, subcutaneous depot), epididymal AT (EAT, visceral depot), and brown AT (BAT, subcutaneous depot) were aseptically dissected and weighed. These depots were kept at –80 °C for further procedures. Animals were euthanized according to protocols for animal use, in agreement with the NIH guidelines for the care and use of experimental animals. All experiments were approved by our Institutional Animal Care Committee (Approval code: 6NE-2023).” left out\nFor protein analysis by Western blot, IAT and EAT were lysed in a RIPA buffer supplemented with a protease and phosphatase inhibitor cocktail. Protein contents were quantified with the bicinchoninic acid method (Thermo Scientific, Pierce™ BCA Protein Assay Kit). […] Finally, relative protein levels were calculated using Image J Fiji software 1.54f."}, "[6]": {"test_system": "pgc1α", "assay": "pgc1α mRNA expression in AT depots (qRT-PCR)", "procedure": "as §1\n(§3) Total RNA was isolated from cells by the Trizol extraction method (Invitrogen, Life Technology, Waltham, MA, USA) and reverse-transcribed using random primers (250 ng) and RevertAid Reverse Transcriptase (200 U/µL, Thermo Scientific, Waltham, MA, USA). […] The expression levels were analyzed for β-actin (βactin, […] gene), Uncoupling Protein 1 (ucp1), proliferator-activated receptor gamma coactivator-1 alpha (pgc1α), cytochrome-c oxidase subunit 8b (cox8b), galanin receptors 2 and 3 (galr2 and galr3, respectively), and Spexin (spx). […] The relative changes in the expression level of each gene (ΔΔCt) were calculated by the ΔCt method."}, "[7]": {"test_system": "mitochondrial DNA", "assay": "Mitochondrial DNA content quantification (qPCR)", "procedure": "as §1, with “Inguinal AT (IAT, subcutaneous depot), epididymal AT (EAT, visceral depot), and brown AT (BAT, subcutaneous depot) were aseptically dissected and weighed. These depots were kept at –80 °C for further procedures. Animals were euthanized according to protocols for animal use, in agreement with the NIH guidelines for the care and use of experimental animals. All experiments were approved by our Institutional Animal Care Committee (Approval code: 6NE-2023).” left out\nTissue from the EAT and IAT depots were homogenized with lysis buffer (40 mM EDTA, 50 mM NaCl, 100 mM Tris, 0.2% SDS) in PBS (2:1) and, for DNA fragmentation, samples were sonicated (38 kHz ± 10% for 5–10 s). […] Finally, the DNA was dissolved in TE buffer and quantified by Nanodrop at 260 nm. […] The relative changes in the DNA mitochondrial content were calculated by 2[2, −ΔΔCt] […]"}, "[8]": {"test_system": "spx", "assay": "spx mRNA expression in AT depots (qRT-PCR)", "procedure": "as §1, §3"}}, "data": [{"molecule": "B1", "values": [{"measurement": "BAT mass percentage", "setting": "[1]", "result": "intermediate value"}, {"measurement": "plasma Tg levels", "setting": "[2]", "result": "did not change"}, {"measurement": "plasma glucose levels", "setting": "[2]", "result": "did not change"}, {"measurement": "plasma SPX levels at end of protocol", "setting": "[3]; day 10 of SPX 29 µg/kg/day, RT or cold, ELISA, n = 6–7", "result": "did not differ between groups"}, {"measurement": "plasma SPX levels 1 h after SPX injection vs. basal", "setting": "[3]; mice, single ip. injection SPX 29 µg/kg, 1 h, plasma ELISA", "result": "two-fold higher than basal ones"}, {"measurement": "plasma SPX levels 3 h after SPX injection vs. basal", "setting": "[3]; mice, single ip. injection SPX 29 µg/kg, 3 h, plasma ELISA", "result": "back to basal levels"}, {"measurement": "SPX half-life in plasma", "setting": "[3]; mice, single ip. injection SPX 29 µg/kg, plasma ELISA at 10, 20, 60, 180, 360 minutes", "result": "short"}, {"measurement": "liver Tg content, SPX-C vs. CTR-C", "setting": "[4]; cold (4 °C), C × S p < 0.001, p < 0.001 vs. CTR-C", "result": "CTR-C mice had higher Tg levels than CTR (p < 0.01) and SPX-C (p < 0.001) mice"}, {"measurement": "liver Tg content, SPX-C vs. SPX", "setting": "[4]; cold vs. RT", "result": "lower Tg levels than SPX mice"}, {"measurement": "UCP1 protein levels in EAT (Western blot)", "setting": "[5]; basal and cold conditions, p < 0.05, n = 4–6", "result": "reduced the UCP1 protein levels at both basal and cold conditions"}, {"measurement": "UCP1 protein levels in IAT (Western blot)", "setting": "[5]; cold, SPX-C intermediate between CTR and CTR-C, C × S p < 0.05", "result": "partial decrease in UCP1 levels"}, {"measurement": "pgc1α mRNA expression in BAT", "setting": "[6]; RT and cold, Supplementary Figure S2b", "result": "no changes were observed"}, {"measurement": "pgc1α mRNA expression in EAT", "setting": "[6]; cold conditions, C p < 0.0001", "result": "increased in EAT for both the control and treated groups"}, {"measurement": "pgc1α mRNA expression in IAT", "setting": "[6]; cold, SPX-C vs. CTR-C, p < 0.001", "result": "inhibited due to SPX in cold conditions"}, {"measurement": "mitDNA content in EAT", "setting": "[7]; RT and cold", "result": "no changes"}, {"measurement": "mitDNA content in IAT", "setting": "[7]; cold, SPX-C intermediate between CTR and CTR-C, C × S p < 0.01", "result": "partial inhibition, although no significant differences were found"}, {"measurement": "spx mRNA expression in EAT", "setting": "[8]; RT and cold", "result": "No changes"}, {"measurement": "spx mRNA expression in BAT", "setting": "[8]; RT and cold, Supplementary Figure S3", "result": "No changes"}, {"measurement": "spx mRNA expression in IAT", "setting": "[8]; cold conditions, C × S p < 0.001", "result": "lower spx expression than CTR mice"}]}]}
